This data set is described as follows: label from the status in PepcDB records.
With “MSQILTITFPIYAALAVGFLVVRQGWFSSADMRVLGRYVMDIALPALLFNAVASRDVAEVFHPGYMLAFAAAGLATVALSYLWFTLTGTEARRRAVAVMGSSCPNSGFVGYPVMLLTFPDLAGVILALNMLVENVLIIPACLILTDMARGRGQGGIGQRIAGILWGVLKRPMVIGLLLGLAVSLAGVPVPQTVTRLMQMLAASASALALVVIGGSLAGLSWKGSRWHAVQISALKLLLHPALALLAVILVAAIGLPLDPDMGTALILSAAMPMFGIYAVLAQELGHEGMASIALLTATTLAFFTLSGLLWWLT”, the protein production result is listed as “failed”.
The value for “MVQEPTQDHLIGTTVDGRYTVRSRLASGGMSTVYLATDQRLERDVALKVLHPHLANDPTFLERLSREAKAAASLSHPHIVGVLDQGEDGTIAYLVMEYVKGHTLRDTLNEQGALQPRLALALIDPVIEGLAAAHRSGLIHRDVKPENVLIADDGRIKVGDFGLARAISANTSTGALIGTVAYLAPELVLGQPADARSDIYSAGIMLYEMLTGKQPYAGDSPIQVAYQHVNAAVGRPSDAAPGLAEDLDELVQWCTAVDAENRPVDGTALLTELRHIRTTLTDEDLDRRQAPSQPPGSPAAATAAAALGGPGGNPTEAIPATASPTEMISHQSNPTTIMAAAGSGRPQTAAVGAVNHEVVRQPGKRELKRLERQEIKDRARAAATPSRPLREGNPRRRGIIWTIVIVILATLAASAGWFFGMGPGSPGTVPDVKNKTVAEAQQLLRTAGFQSEPKDVFDDDILAGLAVGTEPESGAEVRKFQPITLFVSKGAQLFALPTLTGGSLDEAKTALNAAEMALGNVTQAFDEKVPAGVVISQDPAKGTEVRHGTPVSLVVSKGPQPIPVPDVRGLAQDAAVKALQDAGLTAVIAPETVNDKTVPKGAVVSQVPANGTLVRGEAVTLTVSKGPKLVKVPSFIGKQADEAEKELKKLGFKVQVNKVLGGFFGTVRDQNPVNTEIPEDSVVTLTVV” was “failed”; that for “MNAKIIASLAFTSMFSLSTLLSPAHAEEQEKALNFGIISTESQQNLKPQWTPFLQDMEKKLGVKVNAFFAPDYAGIIQGMRFNKVDIAWYGNLSAMEAVDRANGQVFAQTVAADGSPGYWSVLIVNKDSPINNLNDLLAKRKDLTFGNGDPNSTSGFLVPGYYVFAKNNISASDFKRTVNAGHETNALAVANKQVDVATNNTENLDKLKTSAPEKLKELKVIWKSPLIPGDPIVWRKNLSETTKDKIYDFFMNYGKTPEEKAVLERLGWAPFRASSDLQLVPIRQLALFKEMQGVKSNKGLNEQDKLAKTTEIQAQLDDLDRLNNALSAMSSVSKAVQ” was “failed”; that for “MAYTIGVDFGTLSGRAVLVHVQTGEELAAAVKEYRHAVIDTVLPKTGQKLPRDWALQHPADYLEVLETTIPSLLEQTGVDPKDIIGIGIDFTACTILPIDSSGQPLCMLPEYEEEPHSYVKLWKHHAAQKHADRLNQIAEEEGEAFLQRYGGKISSEWMIPKVMQIAEEAPHIYEAADRIIEAADWIVYQLCGSLKRSNCTAGYKAMWSEKAGYPSDDFFEKLNPSMKTITKDKLSGSIHSVGEKAGSLTEKMAKLTGLLPGTAVAVANVDAHVSVPAVGITEPGKMLMIMGTSTCHVLLGEEVHIVPGMCGVVDNGILPGYAGYEAGQSCVGDHFDWFVKTCVPPAYQEEAKEKNIGVHELLSEKANHQAPGESGLLALDWWNGNRSTLVDADLTGMLLGMTLLTKPEEIYRALVEATAYGTRMIIETFKESGVPIEELFAAGGIAEKNPFVMQIYADVTNMDIKISGSPQAPALGSAIFGALAAGKEKGGYDDIKKAAANMGKLKDITYTPNAENAAVYEKLYAEYKELVHYFGKENHVMKRLKTIKNLQFSSAAKK” was “not failed”.
Regarding “MPLITTETGKKMHVLEDGRKLITVIPGDGIGPECVEATLKVLEAAKAPLAYEVREAGASVFRRGIASGVPQETIESIRKTRVVLKGPLETPVGYGEKSANVTLRKLFETYANVRPVREFPNVPTPYAGRGIDLVVVRENVEDLYAGIEHMQTPSVAQTLKLISWKGSEKIVRFAFELARAEGRKKVHCATKSNIMKLAEGTLKRAFEQVAQEYPDIEAVHIIVDNAAHQLVKRPEQFEVIVTTNMNGDILSDLTSGLIGGLGFAPSANIGNEVAIFEAVHGSAPKYAGKNVINPTAVLLSAVMMLRYLEEFATADLIENALLYTLEEGRVLTGDVVGYDRGAKTTEYTEAIIQNLGKTPRKTQVRGYKPFRLPQVDGAIAPIVPRSRRVVGVDVFVETNLLPEALGKALEDLAAGTPFRLKMISNRGTQVYPPTGGLTDLVDHYRCRFLYTGEGEAKDPEILDLVSRVASRFRWMHLEKLQEFDGEPGFTKAQGED”, the protein production entry is reported as “not failed”.
The value for “MIIRDQLILSIDNDLRDLIKARDIGVIYVYREETGEPEPGPSIEDIDLPEPLLEALKKRGIRRLYRFQYDAYKSILNGENVVITAGTGTGKTEAFLLPILSKIYEKRTPNPQAMLVYPTKALARDQLQRINDYLGYGVFSAAVYDGDTPRRIRQKISANPPDIVVTNPDMIHVGLVLSPTIRRFVKASQFMVIDELHVYEGVFGSNVKCVFERINKYRRNNPPQYIGSSATIGNPREHAETLFGVPVKVIEGPLRRRGIAYHVLVSAGKLSRWTVTAALASVLARRGLRFIVFVDSQQMAELIARIAWRSYGVDIMVHRAGLPADERKMIESKLRAGEISGVAATPTLELGIDIGFLDAVIMAAPPPSFAKYLQRAGRAGRRGRKGYVFTVLADDPIDAYYERNPKRYFEQEIPPLYMDPENEEVLRIHLLALLLEQGRIRRDELKRAWLRVAERLRYERLVAWVGPYIYPNYRLARKIFMEYMSIRGSGPQVVIYDVDEKNIVGYRELPQAVLDLHPDAVYLLNRRVYKSIEIDVDKKIARVKRLPDDTPYYTRPLYTVDLVDYSILASRTSSRGIPLAYAWVKLSINVEGYIVRNYWETEKAGIKYWFDHPITYTYNTKALLLKYPENPEWDYMSNAEAFHAIEHALISAARPVCGAALGEMGGISYPSGDIVIYDGAPGGSGLAKLLFERFEKAEEIAYEIVSKCDCEDGCPRCIYSPYCGNNNQVLSRRKATYVLGNILKRGAVKVMEPIKNRYGKPIV” was “failed”.
The result for “PRWSVAAATAVTDFCDRLACDRVALGRRHRRRSKVVSLSHSGNFQRSSELVQRIADAMDEAIDQGEPIRMPQDSDNTLTLTAAHQELIHSGVPRAVLTVLLRRDGRVTGAMVLERGGNNPFRDEEVELVEAVAGILGPVLEEKRLNDR” reads “failed”.
For “HEETECPLRLAVCQHCDLELSILKLKEHEDYCGARTELCGNCGRNVLVKDLKTHPEVCGREG”, the protein production result is “not failed”.
On to “MEPITQAFAQQFSREWIDAWNAHDLDAILSHYADGFEMSSPMIVQIAGEPSGRLRGKEQVGAYWREALRMIPDLHFEWIATLAGVDSVAIHYRGAKGRLALEVFHFGPDRRVVKALAHYAG”, for which the protein production entry is “not failed”.
For the sequence “SLENVLASHSKMQGALEKVQIELGRRDSEIAGLKKERDLNQQRVQKLEAEVDQWQARMLVMEDQHNSEIESLQKALGVAREDNRKLAMSLEQALQTNNHLQTKLDHIQEQLESKELERQNLETFKDRMTEESKVEAELHAERIEALRKQFQTERETTKKVAQREVAELKKALDEANFRSVEVSRTNRELRQKLAELEKILESNKEKIKNQKTQIKLHLSAKANNAQNIERMKVVWETSSHFLDTL”, the protein production result was “not failed”.
On to “MPVLVLLLAVGTGCVSTGTNPVSGNTRAYGYSWQEEVTMGQKADKQIQSQYGVYDDEELQEYVDGVAQEVLAESHMRRPDTPERFRNTEFEFRVLDSPIINAFALPGGYVYVTRGLVAHLNNEAQLAMVLGHEIGHVAARHASQQAARQKFTQGLLLSGAVAGQVAFGGNVAENVMGLGGQAAQLLSLSYSRDNERESDRLGVEYAVRAGYDGAEGAAFFESLERVREQGGQSIPTWQSTHPDPGARQQTIPELAQTWRKKVDRPATTIDQDAYYNALEGTVLGKNPRQGFVEEGVFYQPELAFRFSIPSRWDVQNQPQQVALVQPDQSAYMIFTFSDAETPDAAARKFAGQDGLSVLDRQSTSVNGNDARRVLAEGKTQQGQVVRLLTYFIAYGDNVYQFQGTTSADRYDAYRPDFERTMTSFARLTDSEKLNRQPARIAIQAADREGAFRSFVDTDALPSDMTEEDLAIINQLDVDQVVAPDRPLKLPN”, for which the protein production entry is given as “failed”.
The value for “MELRDRIDFLCKTILAIKTAGRLVLGIDGLSRSGKTTLANQLSQTLREQGISVCVFHMDDHIVERAKRYHTGNEEWFEYYYLQWDVEWLTHQLFRQLKASHQLTLPFYDHETDTHSKRTVYLSDSDMIMIEGVFLQRKEWRPFFDFVVYLDCPREIRFARENDQVKQNIQKFINRYWKAEDYYLETEEPIKRADVVFDMTS” was “not failed”.
